{"source": "the supplement of paper PMC10567573", "parents": {"B1": {"name": "KRT13 (parent)", "chain": "YGGGLGGGFGGGFAGGFVDFGACD"}}, "data": [{"variants_of": "B1", "test": "protein stability index of a GFP-peptide fusion (GPS, HEK-293T) (PSI 1-6); higher = more stable", "conditions": "c terminus: a fixed tail appended", "values": [{"variant": "YGGGLGGGFGGGFAGGRVDFGACD", "note": "[F17R]", "protein stability index": 1.57}, {"variant": "YGGGLGGGFGGGFAGGKVDFGACD", "note": "[F17K]", "protein stability index": 1.96}, {"variant": "YGGGLGGGFGGGFAGGVVDFGACD", "note": "[F17V]", "protein stability index": 2.37}, {"variant": "YGGGLGGGFGGGFAGGLVDFGACD", "note": "[F17L]", "protein stability index": 1.09}, {"variant": "YGGGLGGGFGGGFAGGAVDFGACD", "note": "[F17A]", "protein stability index": 2.07}, {"variant": "YGGGLGGGFGGGFAGGPVDFGACD", "note": "[F17P]", "protein stability index": 1.81}, {"variant": "YGGGLGGGFGGGFAGGGVDFGACD", "note": "[F17G]", "protein stability index": 1.68}, {"variant": "YGGGLGGGFGGGFAGGMVDFGACD", "note": "[F17M]", "protein stability index": 2.11}, {"variant": "YGGGLGGGFGGGFAGGIVDFGACD", "note": "[F17I]", "protein stability index": 1.23}, {"variant": "YGGGLGGGFGGGFAGGDVDFGACD", "note": "[F17D]", "protein stability index": 2.43}, {"variant": "YGGGLGGGFGGGFAGGEVDFGACD", "note": "[F17E]", "protein stability index": 2.44}, {"variant": "YGGGLGGGFGGGFAGGQVDFGACD", "note": "[F17Q]", "protein stability index": 1.93}, {"variant": "YGGGLGGGFGGGFAGGSVDFGACD", "note": "[F17S]", "protein stability index": 1.89}, {"variant": "YGGGLGGGFGGGFAGGNVDFGACD", "note": "[F17N]", "protein stability index": 2.55}, {"variant": "YGGGLGGGFGGGFAGGCVDFGACD", "note": "[F17C]", "protein stability index": 2.18}, {"variant": "YGGGLGGGFGGGFAGGYVDFGACD", "note": "[F17Y]", "protein stability index": 2.01}, {"variant": "YGGGLGGGFGGGFAGGHVDFGACD", "note": "[F17H]", "protein stability index": 2.06}, {"variant": "YGGGLGGGFGGGFAGGTVDFGACD", "note": "[F17T]", "protein stability index": 1.77}, {"variant": "YGGGLGGGFGGGFYGGFVDFGACD", "note": "[A14Y]", "protein stability index": 2.65}, {"variant": "YGGGLGGGFGGGFRGGFVDFGACD", "note": "[A14R]", "protein stability index": 2.03}, {"variant": "YGGGLGGGFGGGFWGGFVDFGACD", "note": "[A14W]", "protein stability index": 2.15}, {"variant": "YGGGLGGGFGGGFTGGFVDFGACD", "note": "[A14T]", "protein stability index": 1.84}, {"variant": "YGGGLGGGFGGGFVGGFVDFGACD", "note": "[A14V]", "protein stability index": 1.89}, {"variant": "YGGGLGGGFGGGFIGGFVDFGACD", "note": "[A14I]", "protein stability index": 2.46}, {"variant": "YGGGLGGGFGGGFQGGFVDFGACD", "note": "[A14Q]", "protein stability index": 3.11}, {"variant": "YGGGLGGGFGGGFMGGFVDFGACD", "note": "[A14M]", "protein stability index": 3.11}, {"variant": "YGGGLGGGFGGGFEGGFVDFGACD", "note": "[A14E]", "protein stability index": 1.81}, {"variant": "YGGGLGGGFGGGFSGGFVDFGACD", "note": "[A14S]", "protein stability index": 1.86}, {"variant": "YGGGLGGGFGGGFKGGFVDFGACD", "note": "[A14K]", "protein stability index": 1.82}, {"variant": "YGGGLGGGFGGGFDGGFVDFGACD", "note": "[A14D]", "protein stability index": 1.86}, {"variant": "YGGGLGGGFGGGFCGGFVDFGACD", "note": "[A14C]", "protein stability index": 2.47}, {"variant": "YGGGLGGGFGGGFFGGFVDFGACD", "note": "[A14F]", "protein stability index": 2.8}, {"variant": "YGGGLGGGFGGGFPGGFVDFGACD", "note": "[A14P]", "protein stability index": 2.02}, {"variant": "YGGGLGGGFGGGFNGGFVDFGACD", "note": "[A14N]", "protein stability index": 1.48}, {"variant": "YGGGLGGGFGGGFHGGFVDFGACD", "note": "[A14H]", "protein stability index": 3.03}, {"variant": "YGGGLGGGFGGGFAGGFADFGACD", "note": "[V18A]", "protein stability index": 2.34}, {"variant": "YGGGLGGGFGGGFATGFVDFGACD", "note": "[G15T]", "protein stability index": 1.61}, {"variant": "YGGGLGGGFGGGFAKGFVDFGACD", "note": "[G15K]", "protein stability index": 1.18}, {"variant": "YGGGLGGGFGGGFAVGFVDFGACD", "note": "[G15V]", "protein stability index": 3.52}, {"variant": "YGGGLGGGFGGGFAEGFVDFGACD", "note": "[G15E]", "protein stability index": 1.89}, {"variant": "YGGGLGGGFGGGFAYGFVDFGACD", "note": "[G15Y]", "protein stability index": 1.67}, {"variant": "YGGGLGGGFGGGFAWGFVDFGACD", "note": "[G15W]", "protein stability index": 1.58}, {"variant": "YGGGLGGGFGGGFANGFVDFGACD", "note": "[G15N]", "protein stability index": 2.55}, {"variant": "YGGGLGGGFGGGFARGFVDFGACD", "note": "[G15R]", "protein stability index": 2.42}, {"variant": "YGGGLGGGFGGGFAQGFVDFGACD", "note": "[G15Q]", "protein stability index": 2.07}, {"variant": "YGGGLGGGFGGGFADGFVDFGACD", "note": "[G15D]", "protein stability index": 2.03}, {"variant": "YGGGLGGGFGGGFAAGFVDFGACD", "note": "[G15A]", "protein stability index": 1.2}, {"variant": "YGGGLGGGFGGGFAIGFVDFGACD", "note": "[G15I]", "protein stability index": 3.13}, {"variant": "YGGGLGGGFGGGFASGFVDFGACD", "note": "[G15S]", "protein stability index": 1.77}, {"variant": "YGGGLGGGFGGGFAPGFVDFGACD", "note": "[G15P]", "protein stability index": 2.71}, {"variant": "YGGGLGGGFGGGFAHGFVDFGACD", "note": "[G15H]", "protein stability index": 1.65}, {"variant": "YGGGLGGGFGGGFAMGFVDFGACD", "note": "[G15M]", "protein stability index": 4.08}, {"variant": "YGGGLGGGFGGVFAGGFVDFGACD", "note": "[G12V]", "protein stability index": 2.42}, {"variant": "YGGGLGGGFGGYFAGGFVDFGACD", "note": "[G12Y]", "protein stability index": 3.95}, {"variant": "YGGGLGGGFGGQFAGGFVDFGACD", "note": "[G12Q]", "protein stability index": 1.39}, {"variant": "YGGGLGGGFGGTFAGGFVDFGACD", "note": "[G12T]", "protein stability index": 2.68}, {"variant": "YGGGLGGGFGGSFAGGFVDFGACD", "note": "[G12S]", "protein stability index": 1.77}, {"variant": "YGGGLGGGFGGWFAGGFVDFGACD", "note": "[G12W]", "protein stability index": 1.34}, {"variant": "YGGGLGGGFGGRFAGGFVDFGACD", "note": "[G12R]", "protein stability index": 2.24}, {"variant": "YGGGLGGGFGGGAAGGFVDFGACD", "note": "[F13A]", "protein stability index": 1.55}, {"variant": "YGGGLGGGFGGGKAGGFVDFGACD", "note": "[F13K]", "protein stability index": 2.25}, {"variant": "YGGGLGGGFGGGTAGGFVDFGACD", "note": "[F13T]", "protein stability index": 2.07}, {"variant": "YGGGLGGGFGGGPAGGFVDFGACD", "note": "[F13P]", "protein stability index": 2.09}, {"variant": "YGGGLGGGFGGGSAGGFVDFGACD", "note": "[F13S]", "protein stability index": 2.16}, {"variant": "YGGGLGGGFGGGDAGGFVDFGACD", "note": "[F13D]", "protein stability index": 2.1}, {"variant": "YGGGLGGGFGGGVAGGFVDFGACD", "note": "[F13V]", "protein stability index": 2.12}, {"variant": "YGGGLGGGFGGGCAGGFVDFGACD", "note": "[F13C]", "protein stability index": 2.11}, {"variant": "YGGGLGGGFGGGQAGGFVDFGACD", "note": "[F13Q]", "protein stability index": 2.8}, {"variant": "YGGGLGGGFGGGYAGGFVDFGACD", "note": "[F13Y]", "protein stability index": 2.39}, {"variant": "YGGGLGGGFGGGMAGGFVDFGACD", "note": "[F13M]", "protein stability index": 2.28}, {"variant": "YGGGLGGGFGGGNAGGFVDFGACD", "note": "[F13N]", "protein stability index": 1.79}, {"variant": "YGGGLGGGFGGGLAGGFVDFGACD", "note": "[F13L]", "protein stability index": 1.28}, {"variant": "YGGGLGGGFGGGEAGGFVDFGACD", "note": "[F13E]", "protein stability index": 2.32}, {"variant": "YGGGLGGGFGGGGAGGFVDFGACD", "note": "[F13G]", "protein stability index": 2.08}, {"variant": "YGGGLGGGFGGGHAGGFVDFGACD", "note": "[F13H]", "protein stability index": 2.44}, {"variant": "YGGGLGGGFGGGIAGGFVDFGACD", "note": "[F13I]", "protein stability index": 1.79}, {"variant": "YGGGLGGGFGGGRAGGFVDFGACD", "note": "[F13R]", "protein stability index": 1.77}, {"variant": "YGGGLGGGFGGGFAGCFVDFGACD", "note": "[G16C]", "protein stability index": 3.82}, {"variant": "YGGGLGGGFGGGFAGWFVDFGACD", "note": "[G16W]", "protein stability index": 3.21}, {"variant": "YGGGLGGGFGGGFAGKFVDFGACD", "note": "[G16K]", "protein stability index": 1.53}, {"variant": "YGGGLGGGFGGGFAGSFVDFGACD", "note": "[G16S]", "protein stability index": 1.83}, {"variant": "YGGGLGGGFGGGFAGQFVDFGACD", "note": "[G16Q]", "protein stability index": 2.36}, {"variant": "YGGGLGGGFGGGFAGIFVDFGACD", "note": "[G16I]", "protein stability index": 2.53}, {"variant": "YGGGLGGGFGGGFAGLFVDFGACD", "note": "[G16L]", "protein stability index": 4.03}, {"variant": "YGGGLGGGFGGGFAGTFVDFGACD", "note": "[G16T]", "protein stability index": 2.02}, {"variant": "YGGGLGGGFGGGFAGNFVDFGACD", "note": "[G16N]", "protein stability index": 1.71}, {"variant": "YGGGLGGGFGGGFAGEFVDFGACD", "note": "[G16E]", "protein stability index": 1.69}, {"variant": "YGGGLGGGFGGGFAGHFVDFGACD", "note": "[G16H]", "protein stability index": 1.4}, {"variant": "YGGGLGGGFGGGFAGAFVDFGACD", "note": "[G16A]", "protein stability index": 1.81}, {"variant": "YGGGLGGGFGGGFAGYFVDFGACD", "note": "[G16Y]", "protein stability index": 2.16}, {"variant": "YGGGLGGGFGGGFAGVFVDFGACD", "note": "[G16V]", "protein stability index": 1.87}, {"variant": "YGGGLGGGFGGGFAGMFVDFGACD", "note": "[G16M]", "protein stability index": 2.76}, {"variant": "YGGGLGGGFGGGFAGRFVDFGACD", "note": "[G16R]", "protein stability index": 1.8}, {"variant": "YGGGLGGGFGGGFAGDFVDFGACD", "note": "[G16D]", "protein stability index": 1.94}]}]}
